These results are taken from a protein production outcome set (Wang et al. 2014).

This series can be described thus: label from the status in PepcDB records.
Regarding “MAISKDLYPSQEDLLYEEELLRNQFSLKLWWRYLIAKAESPFKKRFIIYERALKALPGSYKLWYAYLRERLDIVRNLPVTHPQYDSLNNTFERGLVTMHKMPRIWVMYLQTLTVQQLITRTRRTFDRALCALPVTQHDRIWEPYLVFVSQNGIPIETSLRVYRRYLMYDPSHIEEFIEFLVKSERWQESAERLASVLNDDKFYSIKGKTKHKLWLELCELLVHHANVISGLNVDAIIRGGIRKFTDEVGMLWTSLADYYIRKNLLEKARDIYEEGMMKVVTVRDFSVIFDVYSRFEESTVAKKMEMMSSSDEEDENEENGVEDDEEDVRLNFNLSVKELQRKILNGFWLNDDNDVDLRLARLEELMNRRPALANSVLLRQNPHNVEQWHRRVKIFEGNAAKQILTYTEAVRTVDPMKAVGKPHTLWVAFAKLYENHKDLVNTRVIFDKAVQVNYKTVDHLASVWCEWAEMELRHKNFKGALELMRRATAVPTVEVRRRVAADGNEPVQMKLHRSLRLWSFYVDLEESLGTLESTRAVYEKILDLRIATPQIIMNYAFLLEENKYFEDAFKVYERGVKIFKYPHVKDIWVTYLTKFVKRYGKTKLERARELFEHAVSMAPSDAVRTLYLQYAKLEEDYGLAKRAMKVYEEATKKVPEGQKLEMYEIYISRAAEIFGVPRTREIYEQAIESGLPHKDVKIMCIKFAELERSLGEIDRARALYKYSSQFADPRSDPEFWNKWHEFEVQHGNEDTYREMLRIKRSVSASYSQTHFILPENMMQKDKLLDVEDAKGELKRAGLPEDEMAALERQLLSTTTPTEPAKDGGRRVGFVSAGVISQSGENEGKPVTGNGEDIELPDESDDESDGDDHVEISQKEVPAAVFGGLARKRDEDGEEAGEDGAAQKLGALERIKRQKLNQ”, the protein production result is reported as “failed”.

As for “NCKKIGEDSKIIIRQITDNDLELLMAWRSNPLIYKFFYIQKEPLKWEEHYSWWMSRENRVDWIILLRENNTIRKVGSVNVSQLNTDNPEIGILIGEFFLWGKHIGRHSVSLVLKWLKNIGYKKAHARILENNIRSIKLFESLGFKKTKKGRENEWIYEVNL”, the protein production entry was “not failed”.

Consider “MVKTRAQRIKRMSVVDALCIRSQISVKSARYCKTVSKHLAKLQLAESGKNSSLVVCPSMGKTMKLYSMDAKRCKLSLLSTIDPSQRTPEVFMYMISSYNGIICCVNMIYDEDVENKFCDLQIWICNPITKETLLLPQGTPSFEFEPSIGVAYGSDVSDYKVYRIFCTGKIIPEERGPAEGFYVQEGRFFTKYGHSLAYECEVYSSSTGSWKNIGTVPCLPMSCSLRPYRRTGHIFVGGKVYWLVSLDAPGKILSVDLEGKFEVINLPAYADGLREDEQITEASHLINLKGSLGLLVLHPENMDVWVWKHDGERYSWVFQFKDVVPIKDDELILAVTALDNKIICVNETHWRIYDMETEKWKRRKSPRTGFRNPVVLPFTESVLPCNGGVKQ”, for which the protein production entry is “failed”.

Consider “MIRCLHVLYVRHVMLMSTIHHTKRTLQPYFALVRAPFLVFTAIVILLPAAAAAEAGILNVTNTLLAFGSVLAAHVAVNILNLASDYRTGIDEATDETPYSGGNDVLVSGTLSYRRALAAGVIAILASALFVVPLVSQFGGIVLLFYGVGTVLVVGYTDVFARIGLGEFACGAGLTFLPTVAVGYIQAGTFPESVLYLSVPMFLVGFNLLLLNEFPDVEADRTNGRVNIPVVLGRQTAGYIYFGLVGVLVASLLYPIATGALPATVAVAILPIALLAPIFRTVVLEGNGDLTDDELGNHILWTQTTIVALAVGMAAAAVL”, for which the protein production entry was “failed”.

As to “EHNYHPNAVAAGLRAGRTRSIGLVIPDLENTSYTRIANYLERQARQRGYQLLIACSEDQPDNEMRCIEHLLQRQVDAIIVSTSLPPEHPFYQRWANDPFPIVALDRALDREHFTSVVGADQDDAEMLAEELRKFPAETVLYLGALPELSVSFLREQGFRTAWKDDPREVHFLYANSYEREAAAQLFEKWLETHPMPQALFTTSFALLQGVMDVTLRRDGKLPSDLAIATFGDNELLDFLQCPVLAVAQRHRDVAERVLEIVLASLDEPRKPKPGLTRIKRNLYRRGVLSRS”, the protein production result is on record as “not failed”.

“MAPRDIRPGAEYGDIIEEAIVTCKVFLIVFSETSQISRWVRSELNIGFSSNKPIIPFRIDPTDLKGSMKLMLNDKHWLNAYPNPEEKFSELAAVILDLLQHPAVDTISPPGFQPASNVASADGSNAGAQGLFGKLLNQLFVKRRVKVTSDHAAEIFLNGERKGKLDAYETGNYSVSEDFYQLEVYSCEYGKKVKCEYSGSFSNSSTVIISVDMATAEKQYLMKAKNITSGQINDLGIIFLDEGKFEDAQECFLKAASMGEAAAAYNLGMMYHFGKGVEIDYDVAREYYEEAVKSDYPLALNNLGSIYYNGHGVRKDIAKSFPYFCRAAERGVESAQFTVATMLFYGQGVAVDKAKAKKWFQKAAAQGCKDSQNYLNSWVDDLEHHHHHH”: the protein production entry is recorded as “not failed”.

For the sequence “YETIIIHRHQRPDPDAIGSQVGLAELLRASFPEKNIYQVGGPVEGLEFLAEMDVITDDVYRGALVIVTDTANAPRISDARFSLGDQLIKIDHHPNDEPYGDLVWVNTNASSCSEIIVDFWQQHLAELTMTDNAARLLYAGIVGDTGRFLYPSTSAHTLAVAAQLRTFNFNAADLNRELDQMP”, the protein production result was “not failed”.

Turning to “MWGYVHLISWVAIVVLTVTALLIYSKSVKGFTMLQMINRVFYILVILSGIMMVQYSVKESWILAIFKILMGIIVIGVVEMLLSYRKQQKPTGMFLMIFIIVVVITVSLGFYLSGGYPLFN”, the protein production entry is given as “failed”.

In the case of “MAAKLEKTTNSFEVITREWYAKFSPTWNESHGERIIRRFERDIFPWIGSKPISEIAAPELLATVRRIESRGAVETAHRALGNCGQVFRYAIATARATRDISADLRGALPPVKGEHLEHHHHHH”, the protein production entry was “not failed”.

As for “MAKIKVMSIFGTRPEAIKMAPLVLALEKEPETFESTVVITAQHREMLDQVLEIFDIKPDIDLDIMKKGQTLAEITSRVMNGINEVIAAENPDIVLVHGDTTTSFAAGLATFYQQKMLGHVEAGLRTWNKYSPFPEEMNRQLTGVMADIHFSPTKQAKENLLAEGKDPATIFVTGNTAIDALKTTVQKDYHHPILENLGDNRLILMTAHRRENLGEPMQGMFEAVREIVESREDTELVYPMHLNPAVREKAMAILGGHERIHLIEPLDAIDFHNFLRKSYLVFTDSGGVQEEAPGMGVPVLVLRDTTERPEGIEAGTLKLIGTNKENLIKEALDLLDNKESHDKMAQAANPYGDGFAANRILAAIKSHFEETDRPEDFIV”, the protein production result was “not failed”.

Turning to “MNLTFLGLCIACMGVSVGEGLLMNGLFKSVARQPDMLSEFRSLMFLGVAFIEGTFFVTLVFSFIIK”, the protein production result is on record as “failed”.

For the sequence “MIGNPVIQVPSSLMPSSSMIACPRVSPNGVPYLPPKPRTRHLVVRAASNSDAAHGQPSSDGGKNPLTVVLDVPRNIWRQTLKPLSDFGFGKRSIWEGGVGLFIVSGATLLALSWAWLRGFQMRSKFRKYQTVFELSHASGICTGTPVRIRGVTVGTIIRVNPSLKNIEAVAEIEDDKIIIPRNSLVEVNQSGLLMETMIDIMPRNPIPEPSVGPLHPECGKEGLIVCDRQTIKGVQGVSLDELVGIFTRIGREVEAIGVANTYSLAERAASVIEEARPLLKKIQAMAEDAQPLLSEFRDSGLLKEVECLTRSLTQASDDLRKVNSSIMTPENTELIQKSIYTLVYTLKNVESISSDILGFTGDEATRKNLKLLIKSLSRLL”, the protein production entry is “failed”.

“MTPLMLMVVAGAGIALLLFLVLKYKFQPFVALMLVSIIVALVAGVKPADLVATIEGGMGKTLGHIAIIIALGAMIGRIIELSGGAEALAKTLINRFGNRRTPLALTVAGFMVGIPVFFEVGVIILMPLAYGVARAARKPLLIFALPMCAALLAVHAFLPPHPGAVAAASQLGADLGRVLMLGIPIVAVLCMIGYFVAGRMTRKTYPMTDDIRAEVYGPHVTNEDLEAWARNDYSGAREATETKTLGAEESASSLASKLPPAPAPGFGLIIALILLPIVLILMGTLATTLLPATSTLRAVLTVLGAPLVALLIDTLLCAWLLGSRRGWSRTQVSDVIGSALPGVAMVILIAGAGGVFGKVLVDTGIGAVVSEALRNTGLPVLALGFLLTLLLRAVQGSTTVALVTTAGILSPLIATLDLSANHLALLCLAMGGGGLAMSHINDAGYWMFTKLAGLNVADGLRTWTVLVTLLGTLGFVITLLLWPFV”: the protein production entry is recorded as “failed”.
